Experimental data from patent publication US9884093B2 (Eli Lilly and Company, priority 2015, dated 2018).
Like-named read-outs stand apart in the source and are kept apart here.

Legend:
[1] = biological target: T1, human glucagon receptor (hGcg-R) (Homo sapiens, UniProt P47871); assay: hGcg-R functional cAMP assay; assay type: cell-based; details: read-out: EC50 Gcg Receptor Assay
T1 construct: expressed in transfected cells; host or cells: 293HEK cells, hygromycin-selected

[2] = Stability in co-formulation with GLP-1R agonist (SEC-HPLC, RP-HPLC); assay type: physicochemical; details: four weeks
Method: Examples 1 and 3 are prepared and dialyzed against C6.5 (10 mM Citrate pH 6.5) using the same method as described above for preparation into T7 buffer. Compounds are formulated separately at 1 mg/mL peptide in buffer C6.5, C6.5M (10 mM Citrate, 46.4 mg/mL D-mannitol, pH 6.5), C6.5T (10 mM Citrate, 0.02% polysorbate-80, pH 6.5), and C6.5MT (10 mM Citrate, 46.4 mg/mL D-mannitol, 0.02% polysorbate-80, pH 6.5). A stock concentration of 46.5 mg/mL of dulaglutide in C6.5 is used to formulate dulaglutide at 3 mg/mL in C6.5 and C6.5MT. Co-formulations in C6.5MT are prepared having 3 mg/mL dulaglutide and 1 mg/mL Example 1, or 3 mg/mL dulaglutide and 1 mg/mL Example 3. Each formulated sample is transferred to three vials and maintained at 4° C., 25° C. and 40° C. Samples are assessed every two weeks for a total of four weeks. Samples are visually assessed for turbidity and phase separation. Stability is assessed by RP-HPLC and SEC-HPLC as described above. Both described HPLC methods give good separation of Example compounds and dulaglutide main peaks as well as all degradation peaks produced by stressing the sample at pH 9 and 40° C. for 3 days.

[3] = biological target: T2, glucose-dependent insulinotropic polypeptide receptor, hGIP-R (Homo sapiens, UniProt P48546); assay: hGIP-R functional cAMP assay; details: read-out: EC50 GIP Receptor Assay
T2 sequence (P48546 22-466): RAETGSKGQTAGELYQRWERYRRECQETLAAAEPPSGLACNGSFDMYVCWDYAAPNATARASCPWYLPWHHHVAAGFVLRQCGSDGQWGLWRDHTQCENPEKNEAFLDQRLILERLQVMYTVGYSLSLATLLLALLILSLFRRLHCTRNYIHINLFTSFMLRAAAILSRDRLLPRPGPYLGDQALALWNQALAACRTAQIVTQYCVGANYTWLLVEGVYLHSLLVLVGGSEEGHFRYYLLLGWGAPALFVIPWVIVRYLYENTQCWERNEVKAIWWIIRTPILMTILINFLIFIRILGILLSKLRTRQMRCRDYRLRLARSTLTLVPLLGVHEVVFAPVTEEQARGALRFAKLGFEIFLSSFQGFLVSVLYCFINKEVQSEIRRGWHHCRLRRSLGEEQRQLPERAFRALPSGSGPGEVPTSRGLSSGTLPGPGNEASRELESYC
Method: (§1) The hGIP-R functional assay uses hGIP-R (Usdin, T. B., Gruber, C., Modi, W. and Bonner, T. I., GenBank: AAA84418.1) cloned into pcDNA3.1 (Promega)-NeoR plasmid. The hGIP-R-pcDNA3.1/Neo plasmid is transfected into Chinese Hamster Ovary cells, CHO-S, for suspension cultures and selected in the presence of 500 μg/mL Geneticin (Invitrogen).

[4] = biological target: human Glucagon-Like Peptide-1 receptor (hGLP-1-R) (Homo sapiens, UniProt P43220); assay: hGLP-1-R functional cAMP assay; details: read-out: EC50 GLP-1 Receptor Assay
Chain of human Glucagon-Like Peptide-1 receptor (hGLP-1-R) (P43220 24-463): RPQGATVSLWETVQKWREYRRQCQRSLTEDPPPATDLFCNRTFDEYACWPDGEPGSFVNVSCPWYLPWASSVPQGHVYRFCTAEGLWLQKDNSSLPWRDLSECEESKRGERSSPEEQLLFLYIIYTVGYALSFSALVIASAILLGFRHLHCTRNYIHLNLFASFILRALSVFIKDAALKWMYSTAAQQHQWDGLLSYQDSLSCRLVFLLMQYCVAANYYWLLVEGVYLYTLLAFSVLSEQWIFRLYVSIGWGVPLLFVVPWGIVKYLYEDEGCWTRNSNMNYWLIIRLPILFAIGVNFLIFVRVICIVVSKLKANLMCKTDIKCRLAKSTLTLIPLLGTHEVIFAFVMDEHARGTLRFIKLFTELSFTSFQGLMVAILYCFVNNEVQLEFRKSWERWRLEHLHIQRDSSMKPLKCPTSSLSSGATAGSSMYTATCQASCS
Method: as §1

T1 sequence (P47871 26-477): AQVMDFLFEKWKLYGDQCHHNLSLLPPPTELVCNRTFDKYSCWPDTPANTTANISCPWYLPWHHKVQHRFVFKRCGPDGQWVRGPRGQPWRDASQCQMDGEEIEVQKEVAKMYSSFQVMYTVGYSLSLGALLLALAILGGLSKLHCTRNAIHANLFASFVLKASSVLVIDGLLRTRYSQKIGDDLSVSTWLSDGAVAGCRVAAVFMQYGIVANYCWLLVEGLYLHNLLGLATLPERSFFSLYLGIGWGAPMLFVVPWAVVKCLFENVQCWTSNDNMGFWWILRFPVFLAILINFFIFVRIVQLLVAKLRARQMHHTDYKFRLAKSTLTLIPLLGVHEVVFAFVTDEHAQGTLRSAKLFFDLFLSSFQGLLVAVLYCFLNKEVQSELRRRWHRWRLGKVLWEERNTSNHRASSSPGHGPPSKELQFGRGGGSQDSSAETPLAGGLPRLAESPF

dulaglutide gave an EC50 ([1]; sample C6.5-4 C.-4 wk) of 51.9 ± 68.1 nM, an EC50 ([1]; sample C6.5-40 C.-4 wk) greater than 100 nM and an EC50 ([1]; sample C6.5MT-4 C.-4 wk) of 54 ± 65 nM. The EC50 ([1]; sample C6.5MT-40 C.-4 wk) was greater than 100 nM, the “GLP-1-Fc Δ % Main Peak” value ([2]; RP-HPLC, C6.5, 4° C.) was −1.45% and the “GLP-1-Fc Δ % Main Peak” value ([2]; RP-HPLC, C6.5, 25° C.) was greater than −10%. The “GLP-1-Fc Δ % Main Peak” value ([2]; RP-HPLC, C6.5, 40° C.) was −9.96%, the “GLP-1-Fc Δ % Main Peak” value ([2]; RP-HPLC, C6.5MT, 4° C.) was −0.46% and the “GLP-1-Fc Δ % Main Peak” value ([2]; RP-HPLC, C6.5MT, 25° C.) was −0.8%. The “GLP-1-Fc Δ % Main Peak” value ([2]; RP-HPLC, C6.5MT, 40° C.) was −7.47%, the “GLP-1-Fc Δ % Main Peak” value ([2]; SEC-HPLC, C6.5, 4° C.) was 0.19% and the “GLP-1-Fc Δ % Main Peak” value ([2]; SEC-HPLC, C6.5, 25° C.) was −0.54%. The “GLP-1-Fc Δ % Main Peak” value ([2]; SEC-HPLC, C6.5, 40° C.) was greater than −10%, the “GLP-1-Fc Δ % Main Peak” value ([2]; SEC-HPLC, C6.5MT, 4° C.) was 0.29% and the “GLP-1-Fc Δ % Main Peak” value ([2]; SEC-HPLC, C6.5MT, 25° C.) was −0.87%. The “GLP-1-Fc Δ % Main Peak” value ([2]; SEC-HPLC, C6.5MT, 40° C.) was −0.83%, the EC50 ([3]; sample C6.5-4 C.-4 wk) was greater than 100 nM and the EC50 ([3]; sample C6.5-40 C.-4 wk) was greater than 100 nM. The EC50 ([3]; sample C6.5MT-4 C.-4 wk) was greater than 100 nM, the EC50 ([3]; sample C6.5MT-40 C.-4 wk) was greater than 100 nM and the EC50 ([4]; sample C6.5-4 C.-4 wk) was 0.37 ± 0.11 nM. The EC50 ([4]; sample C6.5-40 C.-4 wk) was 0.31 ± 0.17 nM, the EC50 ([4]; sample C6.5MT-4 C.-4 wk) was 0.4 ± 0.14 nM and the EC50 ([4]; sample C6.5MT-40 C.-4 wk) was 0.29 ± 0.09 nM.
